From publication PMC7995010

Target: ACE2‐Fc produced in glycoengineered ΔXT/FT Nicotiana benthamiana (human) (UniProt Q9BYF1)
Assay: SEC-MALS; isolated dimer fraction of ACE2‐Fc; native molecular mass by MALS

“ACE2‐Fc produced in glycoengineered ΔXT/FT Nicotiana benthamiana (from UniProt Q9BYF1 18-615) (Fc fusion)” gave a stoichiometry N of 2.
